One molecule from PMC10848707 can be followed below.

For this assay, the target named is T1, recombinant influenza A virus nucleoprotein (A/WSN/1933) (influenza A virus (A/WSN/1933)), P15682.
T1 chain: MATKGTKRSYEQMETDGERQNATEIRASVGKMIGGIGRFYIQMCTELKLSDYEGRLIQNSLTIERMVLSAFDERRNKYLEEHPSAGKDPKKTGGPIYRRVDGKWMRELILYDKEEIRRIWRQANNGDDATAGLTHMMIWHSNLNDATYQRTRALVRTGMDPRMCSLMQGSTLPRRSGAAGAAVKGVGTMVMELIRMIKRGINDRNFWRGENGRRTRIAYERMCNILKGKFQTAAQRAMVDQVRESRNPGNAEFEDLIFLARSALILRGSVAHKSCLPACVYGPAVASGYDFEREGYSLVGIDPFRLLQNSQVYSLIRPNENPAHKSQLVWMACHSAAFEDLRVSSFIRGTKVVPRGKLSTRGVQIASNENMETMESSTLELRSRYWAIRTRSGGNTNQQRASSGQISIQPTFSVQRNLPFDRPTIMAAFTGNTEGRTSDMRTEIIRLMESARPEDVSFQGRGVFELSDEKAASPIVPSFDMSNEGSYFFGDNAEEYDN
The assay can be described thus: negative staining EM; freshly assembled RNP-like mixture (NP with 12-nt RNA) diluted to 0.05 mg/ml, 2% sodium silicotungstate pH 7.0. The settings on record: remark: other sources report otherwise.

Where “and” joins values, the source holds several entries; their conditions need not be identical. Equal entries are not always repeated.

What is called stoichiometry N is a count of units in the complex or per binding partner.

B1: recombinant influenza A virus nucleoprotein (A/WSN/1933), P15682 (natural protein)
chain: T1 chain
Turning to B1, the stoichiometry N was 3 and 4.
